Values of other authors, collected in PMC11784315.

Molecular target: Spike S1 S1 (Severe acute respiratory syndrome coronavirus 2) (UniProt P0DTC2)

Sequence of DC-SIGN (Q9NNX6 whole entry): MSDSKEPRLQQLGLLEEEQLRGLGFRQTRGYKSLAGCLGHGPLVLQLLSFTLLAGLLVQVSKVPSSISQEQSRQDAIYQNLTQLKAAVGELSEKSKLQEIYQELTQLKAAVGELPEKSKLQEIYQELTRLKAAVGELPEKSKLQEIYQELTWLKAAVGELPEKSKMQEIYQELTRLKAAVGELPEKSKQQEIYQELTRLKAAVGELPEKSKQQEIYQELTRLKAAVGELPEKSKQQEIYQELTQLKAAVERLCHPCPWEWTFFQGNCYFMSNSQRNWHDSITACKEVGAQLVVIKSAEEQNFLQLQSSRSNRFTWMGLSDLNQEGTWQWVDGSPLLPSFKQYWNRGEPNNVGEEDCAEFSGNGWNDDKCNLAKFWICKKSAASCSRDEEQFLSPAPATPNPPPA

For DC-SIGN (from UniProt Q9NNX6), the Kd is given as 420 nM.
